Assay results: patent publication US8013115B1, “Use of stabilised synthetic compounds in immunoassay” (Bio-Rad Pasteur, priority 1999, dated 2011)
[ ]: non-standard residue; d: D form. Hx = not defined here

Experiments:
[1] = type: physicochemical
Procedure: (§1) The stability of the compounds PEP 5, PEP 9 and PEP 10 was evaluated by ELISA assay, with chemiluminescence reading (signal expressed in Relative Luminescence Units or RLU), with the aid of the automated device Access® from the company Beckman, distributed by Bio-Rad (Marnes la Coquette, France), and then compared with that of a prior art noncyclized reference biepitopic compound (TRP 1116 Ac) analysed in the same manner.

[2] = Linearity of the dilution curves / dilutability, ELISA signal (RLU) versus dilution
Procedure: as §1
Standard for acceptance of the dilutions: the ratio experimental signal/theoretical signal at a given dilution should be equal to 1.00±0.2, for the compound to be dilutable. The dilutions giving signals of less than 100 000 RLU units should not be taken into account.
Results expressed in signal units (RLU)

[3] = target: antibodies of the ELISA assay with chemiluminescence reading on the automated device Access (Beckman); test: ELISA immunoassay, chemiluminescence, Access device; compound diluted 1/300 000
[4] = target: antibodies of the ELISA assay with chemiluminescence reading on the automated device Access (Beckman); test: ELISA immunoassay, chemiluminescence, Access device; compound diluted 1/40 000
[5] = target: antibodies of the ELISA assay with chemiluminescence reading on the automated device Access (Beckman); test: ELISA immunoassay, chemiluminescence, Access device; compound diluted 1/50 000
[6] = target: antibodies of the ELISA assay with chemiluminescence reading on the automated device Access (Beckman); test: ELISA immunoassay, chemiluminescence, Access device; compound diluted 1/10 000
[7] = target: antibodies of the ELISA assay with chemiluminescence reading on the automated device Access (Beckman); test: ELISA immunoassay, chemiluminescence, Access device; compound diluted 1/20 000
[8] = target: antibodies of the ELISA assay with chemiluminescence reading on the automated device Access (Beckman); test: ELISA immunoassay, chemiluminescence, Access device; compound diluted 1/100 000

Molecule | Stability ratio signal at DO + 24 H/signal at DO [1] | Experimental signal ([2]; dilution 1/10 000) | Experimental signal ([2]; dilution 1/20 000) | Experimental signal ([2]; dilution 1/40 000) | Experimental signal ([2]; dilution 1/50 000) | Experimental signal ([2]; dilution 1/100 000) | Experimental signal ([2]; dilution 1/300 000) | Experimental signal (RLU) [3] [RLU] | Experimental signal (RLU) [4] [RLU] | Experimental signal (RLU) [5] [RLU] | Experimental signal (RLU) [6] [RLU] | Experimental signal (RLU) [7] [RLU] | Experimental signal (RLU) [8] [RLU]
Ac-GSSNYRAYA-(TEPH)-AKK-Hx-PLELAGLG-(FAEL)-QDLCRQ-NH2 (SEQ ID NO: 6) (Ac-GSSNYRAYATEPHAKK[Hx]PLELAGLGFAELQDLCRQ-NH2; not fully specified; printed as Ac-GSSNYRAYA-(TEPH)-AKK-Hx-PLELAGLG-(FAEL)-QDLCRQ-NH2; reading uncertain; also: TEPH, Hx, FAEL described as non-natural linkers) [TRP 1116 Ac] | 0.77 | 11 039 697 RLU | 3 779 387 RLU | 1 573 457 RLU | 1 125 417 RLU | 471 714 RLU | 132 054 RLU |  |  |  |  |  | 
Ac-GSSNYRAYATEPHAKK[Hx]PLELAGLGFAELQDLCRQ-NH2 (reading uncertain; also: printed as Ac-GSSNYRAYA-(TEPH)-AKK-Hx-PLELAGLG-(FAEL)-QDLCRQ-NH2) [peptide TRP 1116 Ac: Ac-…-(TEPH)-AKK-Hx-PLELAGLG-(FAEL)-QDLCRQ-NH2] |  |  |  |  |  |  |  | 132000 | 1.57e+06 | 1.13e+06 | 1.1e+07 | 3.78e+06 | 472000
